Measured values published in PMC11698074 (Science Advances, 2025).

T1: His-GFP-Klp2 (S. pombe, UniProt Q9US03 1-817)
T1 sequence: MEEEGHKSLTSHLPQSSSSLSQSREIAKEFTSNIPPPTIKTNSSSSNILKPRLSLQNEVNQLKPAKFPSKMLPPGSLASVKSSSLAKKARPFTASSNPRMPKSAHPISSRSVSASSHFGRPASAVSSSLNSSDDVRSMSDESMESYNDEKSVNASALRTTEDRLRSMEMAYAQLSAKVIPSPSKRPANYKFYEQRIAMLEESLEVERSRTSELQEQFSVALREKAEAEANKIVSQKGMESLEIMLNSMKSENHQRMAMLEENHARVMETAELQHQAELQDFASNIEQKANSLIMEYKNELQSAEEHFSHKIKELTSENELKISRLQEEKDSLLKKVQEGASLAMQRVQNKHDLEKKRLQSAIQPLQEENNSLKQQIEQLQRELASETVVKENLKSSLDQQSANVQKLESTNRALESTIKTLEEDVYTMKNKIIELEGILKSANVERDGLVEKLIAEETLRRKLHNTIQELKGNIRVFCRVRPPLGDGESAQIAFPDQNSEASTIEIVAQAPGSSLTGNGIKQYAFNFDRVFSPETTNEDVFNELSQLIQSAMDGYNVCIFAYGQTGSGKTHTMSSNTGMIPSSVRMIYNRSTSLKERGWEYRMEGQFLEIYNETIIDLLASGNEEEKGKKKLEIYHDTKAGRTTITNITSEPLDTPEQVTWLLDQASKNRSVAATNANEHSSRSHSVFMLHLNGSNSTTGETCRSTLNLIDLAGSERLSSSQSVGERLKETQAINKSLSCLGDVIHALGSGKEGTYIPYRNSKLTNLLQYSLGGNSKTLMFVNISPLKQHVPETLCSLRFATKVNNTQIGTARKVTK

T2: StrepII-GFP-Klp2 (S. pombe, UniProt Q9US03 1-817)
T2 sequence: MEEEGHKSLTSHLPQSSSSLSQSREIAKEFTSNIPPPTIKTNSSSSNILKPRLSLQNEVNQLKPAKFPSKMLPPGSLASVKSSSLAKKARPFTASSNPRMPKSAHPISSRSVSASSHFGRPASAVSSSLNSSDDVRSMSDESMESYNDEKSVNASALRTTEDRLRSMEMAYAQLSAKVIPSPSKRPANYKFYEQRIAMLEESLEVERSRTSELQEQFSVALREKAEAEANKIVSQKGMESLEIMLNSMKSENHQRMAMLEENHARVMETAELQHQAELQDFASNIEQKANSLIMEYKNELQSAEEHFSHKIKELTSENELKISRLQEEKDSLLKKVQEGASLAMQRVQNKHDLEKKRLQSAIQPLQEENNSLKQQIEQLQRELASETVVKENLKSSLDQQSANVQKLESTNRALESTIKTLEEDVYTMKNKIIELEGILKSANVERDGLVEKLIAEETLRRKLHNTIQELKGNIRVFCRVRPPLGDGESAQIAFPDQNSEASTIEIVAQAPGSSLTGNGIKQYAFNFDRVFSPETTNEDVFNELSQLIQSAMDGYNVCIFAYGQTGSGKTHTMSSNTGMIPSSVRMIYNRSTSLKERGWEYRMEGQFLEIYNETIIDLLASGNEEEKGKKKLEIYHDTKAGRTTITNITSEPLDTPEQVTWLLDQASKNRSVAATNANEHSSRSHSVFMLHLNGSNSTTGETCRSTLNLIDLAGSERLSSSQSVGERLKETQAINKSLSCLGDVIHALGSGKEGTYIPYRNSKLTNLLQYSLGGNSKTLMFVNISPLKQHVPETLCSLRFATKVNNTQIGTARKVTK


How the values were obtained:
[1] = molecular target: T1, His-GFP-Klp2; test: pull-down
[2] = molecular target: T2, StrepII-GFP-Klp2; test: TIRF microscopy of purified proteins on microtubules

Binder	binding result [1]	binding result [2]
GST-Rsp1 (natural protein) MARTAFHDEFVDYYTILGAESTSSYVEIRQQYLKLVLRYHPDRNPGREAEVLPQFQLIQKAHEVLKDPKLRELFDQRRLLEAGRPDGVLRFRPKKSGPKNDISTKVASKVSVTMATKFAEKKKKQDRENVDSKDNNITNFSLHRSFSASGKMEKNNSFKEVSTSKSYISSGYLHPKTSPIFKKNGYATENVVDPISSSPRFKGPNYNKFNAKLYLESLREKRRTYTPLSEISNGLNSNGVENSSITKSSPRSSSSSNNERFKDTSEESIIFTSPNTPEHPSVYQTDITPEIKLEHSDNNSPSKPEIPFRHPTSKPLPPKPLSRSKSSSLSRNQTRSQLNDLSAENDSTSNSTEYDDQLQSILRSLAIEGDDDEVAKVLPKPPSVPTIQAPIPPEAPRNLTNASVDSYLNSFEMYQRRWSSYSIIYTQYAFQWQIFKNKCFQLDLMNTPGQSRLIDNWKEGSQAIQLFYAYEQMHLRALEELQSLKESLFASFGI	binds	
Rsp1-mCherry-StrepII (natural protein) MARTAFHDEFVDYYTILGAESTSSYVEIRQQYLKLVLRYHPDRNPGREAEVLPQFQLIQKAHEVLKDPKLRELFDQRRLLEAGRPDGVLRFRPKKSGPKNDISTKVASKVSVTMATKFAEKKKKQDRENVDSKDNNITNFSLHRSFSASGKMEKNNSFKEVSTSKSYISSGYLHPKTSPIFKKNGYATENVVDPISSSPRFKGPNYNKFNAKLYLESLREKRRTYTPLSEISNGLNSNGVENSSITKSSPRSSSSSNNERFKDTSEESIIFTSPNTPEHPSVYQTDITPEIKLEHSDNNSPSKPEIPFRHPTSKPLPPKPLSRSKSSSLSRNQTRSQLNDLSAENDSTSNSTEYDDQLQSILRSLAIEGDDDEVAKVLPKPPSVPTIQAPIPPEAPRNLTNASVDSYLNSFEMYQRRWSSYSIIYTQYAFQWQIFKNKCFQLDLMNTPGQSRLIDNWKEGSQAIQLFYAYEQMHLRALEELQSLKESLFASFGI		binds
